The experiment deals with N-terminally SNAP-tagged human β2AR (SNAP-β2AR) (human, UniProt P07550 1-413). Put plainly: single-molecule co-localisation.

B1: bovine βArr2 tagged C-terminally with Halo (βArr2-Halo) (natural protein)
chain: MGEKPGTRVFKKSSPNCKLTVYLGKRDFVDHLDKVDPVDGVVLVDPDYLKDRKVFVTLTCAFRYGREDLDVLGLSFRKDLFIANYQAFPPTPNPPRPPTRLQERLLRKLGQHAHPFFFTIPQNLPCSVTLQPGPEDTGKACGVDFEIRAFCAKSLEEKSHKRNSVRLVIRKVQFAPEKPGPQPSAETTRHFLMSDRSLHLEASLDKELYYHGEPLNVNVHVTNNSTKTVKKIKVSVRQYADICLFSTAQYKCPVAQVEQDDQVSPSSTFCKVYTITPLLSNNREKRGLALDGKLKHEDTNLASSTIVKEGANKEVLGILVSYRVKVKLVVSRGGDVSVELPFVLMHPKPHDHIALPRPQSAAPETDAPVDTNLIEFETNYATDDDIVFEDFARLRLKGLKDEDYDDQFC
In the case of B1, the average interaction time is around 1 s.

For the origin of these results see article PMC7614532 (Cell, 2023).
